In assay [1] the target is GST-human CD81-LEL (human) (UniProt P60033). The assay is described as follows: ELISA, plate coated with GST-CD81-LEL, 30-fold concentrated HCVpp, detection with 2C1 mAb, GST background subtracted, relative to wt (Cp7) HCVpp. On the technique in general: ELISA stands for enzyme-linked immunosorbent assay.
For assay [2] the target is unchanged. In words: ELISA, plate coated with GST-hCD81-LEL, eE2 detected with anti-human-Fc.
The target in assay [3] is human CD81 (co-receptor on Huh-7.5 cells) (human) (UniProt P60033). In words: cell-based or functional assay.

Values joined by “and” are separate entries in the source; they are usually repeats but may differ in a detail not shown here. Identical values can stand only once.

The text below walks through data of patent publication US20140105931A1.

On to “HCVpp carrying E2 C6A (from UniProt P26660 384-750; P26660 192-383)”, for which, in assay [1], the percentage of CD81 binding relative to the wild type amounted to 14.2%.
“eE2-C6A (Fc-tagged, cell supernatant) (from UniProt P26660 384-664) (Fc fusion)”: the binding capacity relative to wild type eE2 in assay [2] was < 20%.
In the case of “purified eE2 (Fc tag removed) (from UniProt P26660 384-664)”, the blocking of HCVcc (Cp7) infectivity of Huh-7.5 cells in assay [3] was 60% and 70%.
Same read-out and setting: under “purified eE2-C6A (Fc tag removed) (from UniProt P26660 384-664)” stands 25%; under “purified eE2-C17S (from UniProt P26660 384-664)”, 60% and 70%.
